Patent publication US20260035464A1 (STAIDSON BIOPHARMA, published 2026)

Assays:
[1] = target: T1, human BTLA extracellular domain with C-terminal 10xHis tag (human, UniProt Q7Z6A9 31-157); test: BLI (Octet RED96), antibody captured on AHC biosensor, His-tag-huBTLA in solution, 1:1 model
T1 construct: also called HuBTLA-His; His-tag-huBTLA
T1 sequence: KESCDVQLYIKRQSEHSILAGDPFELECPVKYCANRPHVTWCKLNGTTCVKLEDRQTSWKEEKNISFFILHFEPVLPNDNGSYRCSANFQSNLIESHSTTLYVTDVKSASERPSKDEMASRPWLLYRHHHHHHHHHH
Procedure: (§1) The following kinetic assay was performed using anti-human IgG Fc capture (AHC) biosensors (ForteBio) in kinetics buffer (PBS, 0.1% Tween-20 and 1% bovine serum albumin): (a) antibody (2 μg/mL) for 300 sec, (b) baseline for 120 sec, (c) association with purified His-tag-huBTLA (2.5, 0.5 and 0 μg/mL) and His-tag-rhesus monkey BTLA (Sino Biologcal, cat #90250-C08H) (2.5, 0.5 and 0 μg/mL) for 420 sec and (d) dissociation for 1200 sec. Data fitting and analysis was performed with Octet data analysis software 8.0 (ForteBio) using a 1:1 binding model after Savitzky-Golay filtering.

[2] = target: T2, human BTLA (Uniprot Q7Z6A9) expressed on cells (human, UniProt Q7Z6A9 31-289); test: flow cytometry on Expi293 cells stably overexpressing huBTLA, PE anti-human Fc
T2 construct: whole, on cells; also called huBTLA-overexpressing Expi293 cells
Text: To examine the binding of the chimeric anti-BTLA antibodies to huBTLA overexpressing cells, Expi293 cells stably overexpressing huBTLA were used to perform FACS analysis. Briefly, the coding sequence of huBTLA (Uniprot, Q7Z6A9) was cloned into a lentiviral vector and the recombinant virus was packaged according to the instruction of the virus packaging kit (Lenti-X™ Packaging Single Shots, Cat #631275, Takada). The Expi293 cells were transduced with the recombinant virus.
(§2) Expi293 cells stably overexpressing huBTLA were incubated with the chimeric anti-BTLA antibodies 83F2 or 86B7 in PBS containing 0.5% BSA, 1 mM EDTA, and 0.1% sodium azide (FACS buffer) for 30 minutes at 4° C. The cells were washed, and then incubated with 10 nM phycoerythrin (PE) conjugated anti-Human Fc Ab (BioLegend, cat #409304) for 20 minutes at 4° C. Cells were washed and then analyzed by flow cytometry with Attune (ThermoFisher Scientific). Data were analyzed with FlowJo software. Antibody binding is represented as median fluorescence intensity (MFI).

[3] = target: T2, human BTLA (Uniprot Q7Z6A9) expressed …; test: flow cytometry blocking on huBTLA-overexpressing Expi293 cells; competitor human HVEM-mouse IgG2a Fc
Procedure: (§3) Expi293 cells stably overexpressing huBTLA were incubated with chimeric anti-BTLA antibody 83F2 or 86B7 for 30 minutes at 4° C. The cells were washed, and then incubated with human HVEM-mouse IgG2a Fc recombinant protein (Acro Biosystems, cat #HVM-H5255) at […] concentration for 20 minutes at 4° C. The human HVEM bindings were detected by goat anti-mouse Alexa 488 secondary antibody (ThermoFisher, cat #A-11029). Cells were washed and acquired by flow cytometry with Attune. Data were analyzed with FlowJo software. BTLA binding is represented as MFI.

[4] = target: T3, human BTLA extracellular domain with C-terminal mouse IgG2a Fc tag (human; mouse, UniProt Q7Z6A9 31-157); test: blocking ELISA, huBTLA-mIgG2a Fc coated; competitor huHVEM-His (2 ug/ml)
T3 construct: also called huBTLA with mIgG2a Fc tag; not shown: mouse IgG2a Fc, C-terminal
T3 sequence: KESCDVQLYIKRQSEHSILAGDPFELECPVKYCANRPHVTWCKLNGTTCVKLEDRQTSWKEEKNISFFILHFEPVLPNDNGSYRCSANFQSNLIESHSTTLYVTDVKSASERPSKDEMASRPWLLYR
Procedure: HVEM blocking by purified recombinant chimeric antibodies by ELISA: Human HVEM (huHVEM) blocking ELISA was performed on purified recombinant chimeric anti-BTLA antibodies. Briefly, 384-well, clear flat bottom high binding plates (Corning, cat #3700) were coated overnight at 4° C. with 0.333 μg/mL purified huBTLA with mIgG2a Fc tag in PBS (coating solution). After removing the coating solution, the plates were blocked by adding blocking buffer and incubated at 37° C. for 1 hour. Plates were then washed 3 times with wash buffer. Serial dilution of purified chimeric antibodies in PBS were added to individual well followed by incubation at 37° C. for 1 hour. Plates were washed 3 times with wash buffer. Then 30 μL per well of 2 μg/ml human HVEM with His tag (Sino Biological, cat #10334-H08H) in assay buffer was added into the reaction and incubated for 1 hour. Plates were washed 3 times with wash buffer. Then 30 μL per well of mouse anti-his-AP (Southern Biotech, cat: 4603-04) at 1:500 dilution in ELISA diluent was added, and incubated at 37° C. for 30 min, then the plates were washed 5 times with wash buffer and developed for 30 minutes with 30 μL per well of pNPP substrate. Plates were analyzed with a Bio-TEK at 405 nm. The blocking IC₅₀ value represents the antibody concentration that inhibited 50% of huHVEM binding to coated human BTLA.

[5] = target: T4, rhesus monkey BTLA extracellular domain protein with His tag (Sino Biological, cat #90250-C08H) (rhesus monkey, UniProt G7MKA9 31-157); test: ELISA, plate coated with rhesus monkey BTLA, detection with goat anti-human IgG Fc-AP, OD405
T4 construct: extracellular domain; Bought protein; also called His-tag-rhesus monkey BTLA; not shown: His tag
T4 sequence: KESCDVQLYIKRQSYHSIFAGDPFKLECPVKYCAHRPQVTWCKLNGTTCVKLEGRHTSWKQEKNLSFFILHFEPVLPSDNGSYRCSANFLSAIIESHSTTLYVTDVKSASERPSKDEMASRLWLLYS
Procedure: (§4) BTLA binding of purified recombinant chimeric antibodies by ELISA: The huBTLA and rhesus monkey BTLA antigen binding ELISA was performed on the purified recombinant chimeric antibodies. Briefly, 384-well, clear flat bottom high binding plates (Corning, cat #3700) were coated overnight at 4° C. with 0.333 μg/mL of huBTLA or rhesus monkey BTLA in PBS. The following purified process was performed as described in ELISA binding assay in Example 2, except that the secondary antibody was goat anti human IgG Fc-AP (Southern Biotech, cat #2014-04).

[6] = target: T2, human BTLA (Uniprot Q7Z6A9) expressed …; test: cell-based or functional assay
[7] = target: T5, huBTLA as coated in the binding ELISA of Example 3 (tag not stated) (human, UniProt Q7Z6A9 31-157); test: ELISA, plate coated with huBTLA, detection with goat anti-human IgG Fc-AP, OD405
T5 construct: Detection was with anti-human IgG Fc
T5 sequence: T3 sequence
Procedure: as §4

[8] = target: T4, rhesus monkey BTLA extracellular domain …; test: ELISA, rhesus monkey BTLA coated at 0.333 ug/mL, anti-human IgG Fc-AP detection
Procedure: as §4

[9] = target: T5, huBTLA as coated in the binding ELISA …; test: ELISA, huBTLA coated at 0.333 ug/mL, anti-human IgG Fc-AP detection
Procedure: as §4

[10] = target: T2, human BTLA (Uniprot Q7Z6A9) expressed …; test: cell-based or functional assay; remark: listed apart in the source
[11] = target: T2, human BTLA (Uniprot Q7Z6A9) expressed …; test: flow cytometry blocking assay, Expi293-huBTLA cells pre-incubated with titrated SB2003-12, then His-mouse HVEM (concentration not given) and PE anti-His antibody
Procedure: (§5) Cells were washed and stained with PE conjugated anti-His antibody (Thermofisher Scientific, CAT: TA150130). For antibody blocking assay, the exemplary humanized anti-BTLA antibody SB2003-12 was pre-incubated with the cell line followed by mouse HVEM and anti-His antibody staining. Cells were washed and fixed with 2% PFA and were analyzed by flow cytometry with Attune. MFI of HVEM staining was analyzed with FlowJo software.

[12] = target: T6, extracellular domain of human BTLA with FAS, expressed on Jurkat cells (human, UniProt Q7Z6A9 31-157; P25445 174-335, limits assumed); test: cell-based or functional assay
T6 sequence (looked up): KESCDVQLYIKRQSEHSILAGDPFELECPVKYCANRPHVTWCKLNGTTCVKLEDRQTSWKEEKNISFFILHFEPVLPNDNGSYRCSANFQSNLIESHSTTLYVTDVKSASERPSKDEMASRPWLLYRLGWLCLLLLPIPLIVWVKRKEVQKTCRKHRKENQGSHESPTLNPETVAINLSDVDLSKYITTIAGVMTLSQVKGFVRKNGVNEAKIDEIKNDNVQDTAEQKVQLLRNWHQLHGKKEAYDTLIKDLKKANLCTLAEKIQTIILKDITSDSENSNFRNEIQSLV

[13] = target: T2, human BTLA (Uniprot Q7Z6A9) expressed …; test: flow cytometry on huBTLA-overexpressing Expi293 cells, MFI
Procedure: as §2
FACS based binding assays of humanized anti-BTLA antibodies were performed as described above in Example 3.

[14] = target: T1, human BTLA extracellular domain with …; test: BLI (Octet RED96), antibody on AHC biosensor, His-tag-huBTLA in solution; column head prints nM, but Koff/Kon shows the values are in M
Procedure: as §1
(§6) Binding affinities (monovalent Kd) of humanized anti-BTLA antibodies were determined using Biolayer interferometry on the Octet RED96 instrument (ForteBio) as described above in Example 3, except for (c) association with His-tag-huBTLA ([…]) for 420 sec.

[15] = target: T2, human BTLA (Uniprot Q7Z6A9) expressed …; test: flow cytometry blocking assay on huBTLA-overexpressing Expi293 cells, antibody titrated, soluble human HVEM-mouse IgG2a Fc detected
Procedure: as §3
FACS based blocking assays of humanized anti-BTLA antibodies were performed as described above in Example 3.

[16] = target: T1, human BTLA extracellular domain with …; test: BLI (Octet RED96), antibody on AHC biosensor, His-tag-huBTLA in solution
Procedure: as §1, §6

[17] = target: T2, human BTLA (Uniprot Q7Z6A9) expressed …; test: flow cytometry, His-mouse HVEM on Expi293-huBTLA cells, PE anti-His antibody, MFI
Procedure: as §5

B1: chimeric anti-BTLA antibody 83F2 (antibody, V domains shown)
VH: QVQFQQSGAELARPGASVKLSCKASGYTFTDFWIQWVKQRPGQGLEWIGTIYPGDGDTRENQKFKGRATLTADKSSSTAYMQLSSLESDDSAVYYCARGNGNSWFAYWGQGTLVTVSA
VL: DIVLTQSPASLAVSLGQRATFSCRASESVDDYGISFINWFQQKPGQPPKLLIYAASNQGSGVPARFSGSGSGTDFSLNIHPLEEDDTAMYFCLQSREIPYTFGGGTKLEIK
Kd [1]: 2.91 nM | koff [1]: 0.000548 s⁻¹ | kon [1]: 188000 M⁻¹ s⁻¹ | EC50 [2]: 1.85 nM | IC50 [3]: 0.656 nM | IC50 [4]: 1.24 nM | EC50 (read off the curve) [5]: ~0.4 nM | EC50 of recovery of IL-2 production, Raji-HVEM/Jurkat-BTLA coculture [6]: 1.85 nM | EC50 (read off the curve) [7]: ~0.4 nM | EC50 [8]: 0.0542 nM | EC50 [9]: 0.0564 nM

B2: humanized anti-BTLA antibody SB2003-12 (antibody, V domains shown)
VH: QVTLKESGPTLVKPTQTLTLTCTFSGFSLSTFGMGVSWIRQPPGKALEWLAHIYWDDDKRFNPSLKSRLTITKDTSKNQVVLTMTNMDPVDTATYYCAHGNWDGETYFDYWGQGTLVTVSS
VL: DVVMTQSPLSLPVTLGQPASISCKSTQSLLDSDGKTYLNWLQQRPGQSPRSLIYLVSKLDSGVPDRFSGSGSGTDFTLKISRVEAEDVGVYYCWQGTHFPWTFGQGTKVEIK
EC50 of recovery of IL-2 production, Raji-HVEM/primary human T cell coculture [10]: 4.91 nM | IC50 (read off the curve) [11]: ~2 nM | EC50 of inhibition of huHVEM-Fc-induced apoptosis, Jurkat-huBTLA-FAS cells (ATP luminescence) [12]: 0.0614 nM | EC50 (read off the curve) [13]: ~0.8 nM | Kd [14]: 0.198 nM | IC50 (read off the curve) [15]: ~0.4 nM | koff [16]: 8.05e-05 s⁻¹ | kon [16]: 418000 M⁻¹ s⁻¹

B3: His-mouse HVEM protein (Sino Biological, cat #10567-M03H) (ligand, UniProt Q80WM9 39-206, looked up)
chain: QPSCRQEEFLVGDECCPMCNPGYHVKQVCSEHTGTVCAPCPPQTYTAHANGLSKCLPCGVCDPDMGLLTWQECSSWKDTVCRCIPGYFCENQDGSHCSTCLQHTTCPPGQRVEKRGTHDQDTVCADCLTGTFSLGGTQEECLPWTNCSAFQQEVRRGTNSTDTTCSSQ
notes: Bought protein; also called musHVEM; not shown: His tag
EC50 (read off the curve) [17]: ~2 nM
